Test results from US20230167458A1, “FORSKOLIN-INDUCIBLE PROMOTERS AND HYPOXIA-INDUCIBLE PROMOTERS” (ASKLEPIOS BIOPHARMACEUTICAL, INC., priority 2020, published 2023).

Experiments:
CHO-GSK1SV cell line = test: SEAP expression and cell number in normoxia vs 24 h hypoxia, stably transfected CHO-GS-KSV1; assay type: cell-based, chinese hamster; conditions: stably integrated CHO-GSK1SV
Protocol: Cell suspensions of 6×10^5 cells per mL are incubated on an orbital shaker set at 8% CO2, 20% O2, 37° C., 85% relative humidity and 140 rpm overnight. 2.86×10^7 cells were centrifuged at 200 g for 3 minutes. Media is then aspirated and cell pellet resuspended in 2 mL fresh CD-CHO media to obtain a concentration of 1.43×10^7 cells per mL. 700 μL of cell suspension was added to each of two electroporation cuvettes each containing […] of linearised DNA in 100 μL of sterile TE buffer (Thermofisher, 12090015). Each cuvette was electroporated, delivering a single pulse of 300V, […] with resistance to infinity. Immediately after delivery of pulse electroplated cells were transferred to Erlenmeyer 125 mL flask containing 20 mL of CD-CHO media pre-warmed to 37° C. Electroporated cells from two cuvettes are combined into a single 125 mL flask to generate one pool of cells. Cells are cultured on an orbital shaker set at 8% CO2, 20% 02, 37° C., 85% relative humidity and 140 rpm. Cells are transferred to fresh CD-CHO media 24 hours after transfection and cell cultures monitored and given fresh CD-CHO media every 2-4 days. Usually after about 10-14 days cell numbers will be high enough to start passaging. Cells were selected at 14 days and then expanded. Induction was performed once doubling time had returned to approx. 24 hrs. The cells assayed in this example were at passage number 15, 17, 19 and 21.
The transfected DNA was pXC-17.4 expression vector (Lonza Biologics plc) where one of the promoter constructs (RTV-015, HYBT, RTV-016, HV3C) or a control promoter (CMV-IE) have been cloned upstream of the SEAP gene, which had been cloned into the multiple cloning site within the vector expression cassette. Promoters were closed into the pXC-17.4 vector using Gibson assembly. The pXC-17.4 expression vector is designed for making stable cell lines in the CHO-GSK1SV cell line as it contains the […] gene which has been knocked out of the cell line. Therefore, selection of cells in glutamine drop-out medium will select for cells that have stably integrated the plasmid.
Stably transfected CHO-GS cells were seeded at 500,000 cells/ml and allowed to grow for 24 hrs, at this point the cells were counted and placed under hypoxic conditions as previously described. After 24 hrs, the cell numbers and the expression of SEAP was measured.
SEAP Reporter Gene Assay, chemiluminescent (Roche, CAT #11 779 842 001) was used to measured SEAP activity as per manufacturers protocol. All reagents and samples were fully pre-equilibrated at room temperature. Culture supernatant was collected from the stably transfected CHO-GS at the specific time points (0 h and 24 h). The supernatant was diluted 1:4 in dilution buffer and heat treated at 65° C. for 30 minutes. The heat-treated sample was then centrifuged for 30 s at maximum speed. 50 μl of the heat-treated sample was then added to 5 μl of inactivation buffer and incubated for 5 min at room temperature. 50 μl of substrate reagent was then added and incubated for 10 min at room temperature. The signal is then read at 477 nm and compared to a calibration curve. SEAP expression was normalized against cell number to ensure that the increase in activity was not due to increased cell numbers and was true induction. The result of this experiment can be seen in FIG. 16 and FIG. 17.

HEK293-F = test: Luciferase time course under hypoxia, transiently transfected HEK293-F; assay type: cell-based, human; conditions: hypoxia 5% oxygen, printed order RTV-015, SYNP-HYP-001, RTV-016, HYBT, HV3C
Protocol: The constructs were initially used to drive luciferase expression in HEK293-F and HEK293-T in hypoxia.
40 ml of cells were grown in a 250 ml vented Erlenmeyer flask (Sigma-Aldrich CLS431144) at 37° C., 20% O2, 8% CO2 with agitation at 100 rpm. Cells were seeded as described in the manufacturer's instructions (300,000 cells/ml). HEK293-F were obtained from Thermofisher, R79007.
One day before transfection, the cells were counted using a haemocytometer and split to 500,000 cells/ml.
On the day of transfection, the cells are seeded to 1,000,000 cells/ml in 500 μl of appropriate medium (Freestyle 293 expression medium, 12338002) in a 24 well plate. […] of DNA per well was then added to 10 μl of OptiMem medium (Thermofisher; 11058021) and incubated for 5 minutes at room temperature.
Concurrently, 0.625 μl of Max reagent (Thermofisher, 16447100) was made up to 10 μl by addition of OptiMem and incubated for 5 minutes at room temperature. After this incubation, both mixes were added to the same tube and incubated at room temperature for 25-30 minutes. […]
After transfection the cells were incubated for 24 hrs in normoxia conditions (20% oxygen) before being switched to a gas mix of 5% oxygen, 10% carbon dioxide and 85% nitrogen (hypoxia). […] Induction of the promoters was assessed by using luciferase activity after 3, 5 and 24 hrs in hypoxia.
Luciferase activity was measured using LARII (Dual Luciferase Reporter 1000 assay system, Promega, E1980).
Media was removed from the cells at the respective time point (0, 3, 5, 24 hrs after induction). […] 10 μl of supernatant was pipetted into white 96-well plate and luminescence measured by addition of 50 μl of LARII substrate.
β-galactosidase activity was measured as per manufacturer's instructions (Mammalian βGalactosidase Assay Kit, 75707/75710, Thermo Scientific) using 25 μl of lysate. […] The mixture was incubated at 37° C. for 30 min and absorbance measured at 405 nm.
Luciferase readouts were normalised to β-galactosidase to produce normalised relative luminometer units (RLUs).

B1: RTV-015: synthetic hypoxia-inducible promoter, SEQ ID NO: 81; 5 HRE1 elements spaced by 40 bp and minimal promoter MP1 (nucleic acid)
DNA: ACGTGCGATGATGCGTAGCTAGTAGTGATGATGCGTAGCTAGTAGTACGTGCGATGATGCGTAGCTAGTAGTGATGATGCGTAGCTAGTAGTACGTGCGATGATGCGTAGCTAGTAGTGATGATGCGTAGCTAGTAGTACGTGCGATGATGCGTAGCTAGTAGTGATGATGCGTAGCTAGTAGTACGTGCTTGGTACCATCCGGGCCGGCCGCTTAAGCGACGCCTATAAAAAATAGGTTGCATGCTAGGCCTAGCGCTGCCAGTCCATCTTCGCTAGCCTGTGCTGCGTCAGTCCAGCGCTGCGCTGCGTAACGGCCGCC
modifications: Synp-RTV-015
notes: 5 HRE1 elements spaced by 40 bp and minimal promoter MP1
For B1, the “SEAP activity in normoxia” value (CHO-GSK1SV cell line) was “almost no SEAP activity”, the “inducibility after 24 hours in hypoxia (rank)” value (CHO-GSK1SV cell line) was “lowest” and the “relative rank of promoter activity” value (HEK293-F) was “weakest”.

B2: HV3C: synthetic hypoxia-inducible promoter, SEQ ID NO: 85/87; 4 HRE3 elements and CMV minimal promoter (nucleic acid)
DNA: GATCTTTGTATTTAATTAAGACCTTGAGTACGTGCGTCTCTGCACGTATGGCGATTAAGACCTTGAGTACGTGCGTCTCTGCACGTATGGCGATTAAGACCTTGAGTACGTGCGTCTCTGCACGTATGGCGATTAAGACCTTGAGTACGTGCGTCTCTGCACGTATGGCGATTAATCCATATGCAGGTCTATATAAGCAGAGCTCGTTTAGTGAACCGTCAGATCGCCTAGATACGCCATCCACGCTGTTTTGACCTCCATAGAAGATCGCCACC
modifications: Synp-HV3C
notes: 4 HRE3 elements and CMV minimal promoter
With B2 the “SEAP activity in normoxia” value (CHO-GSK1SV cell line) was “almost no SEAP activity”, the “inducibility after 24 hours in hypoxia (rank)” value (CHO-GSK1SV cell line) was “highest” and the “relative rank of promoter activity” value (HEK293-F) was “strongest”.
